The target in test [1] is T1, endogenous human EPHA2 (on MDA-MB-231 cells or 293F cells) (human, UniProt P29317 24-976).
T1 construct: Untagged protein made by the cell lines themselves; also called endogenous EPHA2; EPHA2 endogenously expressed MDA-MB-231 cells
The experiment in a line: immunohistochemistry on formalin-fixed, paraffin-embedded MDA-MB-231 cells.

Test [2] deals with T2, human EPHA2 without signal sequence, FLAG-tagged, expressed from pFLAG-EPHA2 (human, UniProt P29317 24-976).
T2 construct: formalin-fixed, paraffin-embedded; not shown: FLAG tag supplied by the vector pFLAG-GW (from pFLAG-myc-CMV19)
The experiment in a line: immunohistochemistry on formalin-fixed, paraffin-embedded 293F cells transiently expressing EPHA2; antibody at 2.5 μg/mL.

The target of test [3] is T3, human EPHB4 without signal sequence, FLAG-tagged, expressed from pFLAG-EPHB4 (human, UniProt P54760 16-987).
T3 construct: not shown: FLAG tag supplied by the vector pFLAG-GW
T3 sequence: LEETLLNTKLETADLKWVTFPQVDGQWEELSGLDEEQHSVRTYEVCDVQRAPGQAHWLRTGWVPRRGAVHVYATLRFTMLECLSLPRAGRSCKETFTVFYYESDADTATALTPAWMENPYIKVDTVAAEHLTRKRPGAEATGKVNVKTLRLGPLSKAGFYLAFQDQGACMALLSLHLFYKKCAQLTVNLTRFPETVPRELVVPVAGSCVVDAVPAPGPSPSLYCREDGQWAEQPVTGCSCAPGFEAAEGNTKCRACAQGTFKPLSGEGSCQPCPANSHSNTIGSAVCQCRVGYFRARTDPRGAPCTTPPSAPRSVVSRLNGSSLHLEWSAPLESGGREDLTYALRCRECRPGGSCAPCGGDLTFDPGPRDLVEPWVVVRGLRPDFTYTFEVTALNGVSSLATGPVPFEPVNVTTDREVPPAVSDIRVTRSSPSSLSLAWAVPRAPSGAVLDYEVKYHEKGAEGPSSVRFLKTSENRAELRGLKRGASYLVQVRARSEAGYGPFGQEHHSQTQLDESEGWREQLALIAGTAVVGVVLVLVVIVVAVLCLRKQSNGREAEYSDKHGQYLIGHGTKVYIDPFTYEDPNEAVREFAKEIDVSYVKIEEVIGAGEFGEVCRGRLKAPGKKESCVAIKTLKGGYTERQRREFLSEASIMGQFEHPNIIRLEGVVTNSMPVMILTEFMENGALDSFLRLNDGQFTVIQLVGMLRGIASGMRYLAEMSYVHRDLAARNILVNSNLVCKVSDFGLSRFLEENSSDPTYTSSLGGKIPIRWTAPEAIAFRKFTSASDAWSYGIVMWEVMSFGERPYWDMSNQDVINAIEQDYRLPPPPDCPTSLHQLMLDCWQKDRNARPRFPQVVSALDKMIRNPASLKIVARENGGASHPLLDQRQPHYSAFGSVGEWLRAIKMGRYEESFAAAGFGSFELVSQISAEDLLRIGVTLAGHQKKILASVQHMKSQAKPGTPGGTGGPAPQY
Nature of the test: flow cytometry on transfected 293F cells.

For test [4], the target named is T4, human PTPRF isoform 2 without signal sequence, FLAG-tagged, expressed from pFLAG-PTPRF-2 (human, UniProt P10586 30-1907).
T4 construct: not shown: FLAG tag supplied by the vector pFLAG-GW
Nature of the test: flow cytometry on transfected 293F cells. (In flow cytometry, cells or beads pass a laser one at a time.)

The target in test [5] is T5, human PTPRS isoform 4 without signal sequence, FLAG-tagged, expressed from pFLAG-PTPRS-4 (human, UniProt Q13332 30-1948).
T5 construct: not shown: FLAG tag supplied by the vector pFLAG-GW
T5 sequence: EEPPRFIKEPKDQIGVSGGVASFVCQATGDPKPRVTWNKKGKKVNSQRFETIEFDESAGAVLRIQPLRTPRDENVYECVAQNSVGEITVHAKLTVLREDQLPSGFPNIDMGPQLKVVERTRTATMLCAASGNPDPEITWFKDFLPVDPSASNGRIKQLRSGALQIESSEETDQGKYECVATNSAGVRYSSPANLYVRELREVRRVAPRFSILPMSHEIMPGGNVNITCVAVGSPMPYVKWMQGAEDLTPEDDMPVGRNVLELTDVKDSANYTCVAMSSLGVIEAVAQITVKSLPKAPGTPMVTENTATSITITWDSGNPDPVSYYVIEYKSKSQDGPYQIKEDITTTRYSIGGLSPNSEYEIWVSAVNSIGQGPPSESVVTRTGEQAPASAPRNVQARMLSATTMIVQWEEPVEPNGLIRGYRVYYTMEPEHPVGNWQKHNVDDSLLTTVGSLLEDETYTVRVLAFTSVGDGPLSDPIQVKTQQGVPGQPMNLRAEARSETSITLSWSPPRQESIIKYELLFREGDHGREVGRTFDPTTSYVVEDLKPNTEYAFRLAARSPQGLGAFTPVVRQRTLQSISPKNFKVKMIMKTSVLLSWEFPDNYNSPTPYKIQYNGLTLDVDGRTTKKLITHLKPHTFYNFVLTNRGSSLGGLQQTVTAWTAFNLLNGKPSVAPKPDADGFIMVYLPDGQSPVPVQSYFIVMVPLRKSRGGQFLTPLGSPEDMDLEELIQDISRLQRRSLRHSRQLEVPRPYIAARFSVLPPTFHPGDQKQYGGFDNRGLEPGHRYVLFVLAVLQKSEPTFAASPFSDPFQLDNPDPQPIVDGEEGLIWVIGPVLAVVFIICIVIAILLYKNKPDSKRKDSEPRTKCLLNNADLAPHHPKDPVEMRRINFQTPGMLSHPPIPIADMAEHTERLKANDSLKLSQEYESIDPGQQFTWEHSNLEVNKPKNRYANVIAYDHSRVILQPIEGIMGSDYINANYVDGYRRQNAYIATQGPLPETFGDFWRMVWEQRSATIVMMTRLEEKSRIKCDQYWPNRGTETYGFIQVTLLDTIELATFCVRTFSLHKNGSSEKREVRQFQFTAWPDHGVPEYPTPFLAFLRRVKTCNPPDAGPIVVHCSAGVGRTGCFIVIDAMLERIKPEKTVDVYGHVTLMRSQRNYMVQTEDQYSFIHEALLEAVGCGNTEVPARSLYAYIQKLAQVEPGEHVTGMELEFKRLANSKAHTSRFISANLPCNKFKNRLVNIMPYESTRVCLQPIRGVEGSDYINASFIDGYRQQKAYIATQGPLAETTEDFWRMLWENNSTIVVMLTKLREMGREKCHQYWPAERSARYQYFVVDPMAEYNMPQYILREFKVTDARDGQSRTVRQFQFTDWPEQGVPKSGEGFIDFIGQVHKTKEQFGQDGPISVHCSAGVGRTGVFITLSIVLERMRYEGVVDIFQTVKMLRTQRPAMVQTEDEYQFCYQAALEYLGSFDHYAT
Nature of the test: flow cytometry on transfected 293F cells.

The results in this text go back to patent WO2016171242A1 (dated 2016).

T1 sequence (P29317 24-976): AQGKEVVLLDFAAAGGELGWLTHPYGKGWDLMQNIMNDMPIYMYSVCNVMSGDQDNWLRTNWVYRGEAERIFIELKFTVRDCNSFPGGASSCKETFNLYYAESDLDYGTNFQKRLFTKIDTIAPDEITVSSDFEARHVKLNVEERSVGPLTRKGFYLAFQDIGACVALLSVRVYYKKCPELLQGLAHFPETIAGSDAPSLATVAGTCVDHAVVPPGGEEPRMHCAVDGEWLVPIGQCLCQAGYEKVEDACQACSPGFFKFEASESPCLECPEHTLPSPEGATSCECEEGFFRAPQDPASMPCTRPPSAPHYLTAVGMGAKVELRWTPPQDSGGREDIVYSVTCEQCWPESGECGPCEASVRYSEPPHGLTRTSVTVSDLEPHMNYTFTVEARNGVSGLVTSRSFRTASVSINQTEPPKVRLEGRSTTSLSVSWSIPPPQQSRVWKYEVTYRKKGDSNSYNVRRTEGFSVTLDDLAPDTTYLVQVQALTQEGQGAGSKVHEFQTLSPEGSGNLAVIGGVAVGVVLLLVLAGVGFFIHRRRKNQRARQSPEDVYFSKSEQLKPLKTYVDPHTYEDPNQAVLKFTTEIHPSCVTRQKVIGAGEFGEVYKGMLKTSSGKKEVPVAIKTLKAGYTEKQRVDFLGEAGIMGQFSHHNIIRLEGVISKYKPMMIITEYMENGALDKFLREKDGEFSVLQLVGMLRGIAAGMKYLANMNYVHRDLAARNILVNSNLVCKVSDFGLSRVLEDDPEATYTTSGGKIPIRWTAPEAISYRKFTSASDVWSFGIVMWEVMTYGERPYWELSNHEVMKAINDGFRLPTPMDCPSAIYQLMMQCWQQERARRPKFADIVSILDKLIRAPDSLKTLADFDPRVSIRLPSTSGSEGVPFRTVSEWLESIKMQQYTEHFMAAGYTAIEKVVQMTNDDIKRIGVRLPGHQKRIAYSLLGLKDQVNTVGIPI
T2 sequence (P29317 24-976): as above
T4 sequence (P10586 other isoform, or with tags, fused parts or gaps): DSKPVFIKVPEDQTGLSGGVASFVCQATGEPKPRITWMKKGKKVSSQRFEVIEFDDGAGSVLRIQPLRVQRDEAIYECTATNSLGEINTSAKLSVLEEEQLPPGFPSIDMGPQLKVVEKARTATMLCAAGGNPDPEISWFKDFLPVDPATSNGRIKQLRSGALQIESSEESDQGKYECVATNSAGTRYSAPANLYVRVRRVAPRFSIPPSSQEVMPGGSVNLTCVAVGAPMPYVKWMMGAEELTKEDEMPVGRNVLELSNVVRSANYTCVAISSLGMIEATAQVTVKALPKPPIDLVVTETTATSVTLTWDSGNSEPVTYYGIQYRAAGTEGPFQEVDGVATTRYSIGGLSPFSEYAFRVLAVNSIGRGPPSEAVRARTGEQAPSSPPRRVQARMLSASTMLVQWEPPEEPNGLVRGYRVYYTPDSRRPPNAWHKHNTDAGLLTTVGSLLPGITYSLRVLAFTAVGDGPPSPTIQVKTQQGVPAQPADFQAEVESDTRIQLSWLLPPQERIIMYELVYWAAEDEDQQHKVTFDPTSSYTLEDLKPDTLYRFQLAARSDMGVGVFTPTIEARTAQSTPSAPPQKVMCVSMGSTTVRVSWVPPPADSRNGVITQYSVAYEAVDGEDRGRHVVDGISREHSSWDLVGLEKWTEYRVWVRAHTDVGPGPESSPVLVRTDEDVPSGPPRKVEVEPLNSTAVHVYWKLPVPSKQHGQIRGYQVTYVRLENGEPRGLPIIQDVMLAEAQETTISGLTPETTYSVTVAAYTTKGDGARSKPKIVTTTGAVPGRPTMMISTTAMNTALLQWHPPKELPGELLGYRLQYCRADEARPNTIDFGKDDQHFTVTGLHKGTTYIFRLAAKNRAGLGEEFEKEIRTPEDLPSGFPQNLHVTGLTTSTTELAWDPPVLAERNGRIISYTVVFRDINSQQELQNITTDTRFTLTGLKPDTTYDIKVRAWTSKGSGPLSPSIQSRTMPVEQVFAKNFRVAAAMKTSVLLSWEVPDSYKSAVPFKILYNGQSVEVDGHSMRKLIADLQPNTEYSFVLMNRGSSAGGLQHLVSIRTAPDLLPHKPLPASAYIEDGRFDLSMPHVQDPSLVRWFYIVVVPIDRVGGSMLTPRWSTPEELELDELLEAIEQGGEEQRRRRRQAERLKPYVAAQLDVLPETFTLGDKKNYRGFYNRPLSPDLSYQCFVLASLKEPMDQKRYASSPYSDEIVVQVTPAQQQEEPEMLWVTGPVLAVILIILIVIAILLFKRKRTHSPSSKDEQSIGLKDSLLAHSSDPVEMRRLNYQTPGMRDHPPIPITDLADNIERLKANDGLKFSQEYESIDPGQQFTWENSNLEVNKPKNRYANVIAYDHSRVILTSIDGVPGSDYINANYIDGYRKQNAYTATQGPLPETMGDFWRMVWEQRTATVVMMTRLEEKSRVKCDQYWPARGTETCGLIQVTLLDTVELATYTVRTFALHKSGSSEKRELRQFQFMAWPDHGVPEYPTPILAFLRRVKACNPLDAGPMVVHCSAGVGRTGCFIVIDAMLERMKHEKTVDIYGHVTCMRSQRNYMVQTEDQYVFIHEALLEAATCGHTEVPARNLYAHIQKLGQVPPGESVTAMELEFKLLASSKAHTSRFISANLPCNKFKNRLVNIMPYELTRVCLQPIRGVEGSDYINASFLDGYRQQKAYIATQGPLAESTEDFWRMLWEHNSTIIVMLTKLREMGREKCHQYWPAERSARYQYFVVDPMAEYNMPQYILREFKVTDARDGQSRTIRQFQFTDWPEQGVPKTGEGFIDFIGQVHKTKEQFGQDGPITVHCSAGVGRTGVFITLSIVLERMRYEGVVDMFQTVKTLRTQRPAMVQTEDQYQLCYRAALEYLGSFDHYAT

B1: mouse anti-human EPHA2 antibody A201 (antibody, V domains shown)
VH: EVQLQQSGAELVKPGASVKLSCTVSGFTFKDTYVHWVKQRPEQGLEWIGRIDPANANTKYDPKFQGKASITADTSSNTAYLQLSSLPSEDTAVYYCAAYGKSAWFAYWGQGTLVTVSA
VL: DIQMTQTTSSLSASLGDRVTISCRASQDIGNYLNWYQQKPDGTVKVLIYYTSRLHSGVPSRFSGSGSGTDYSLTISNLEQEDIATYFCQQGHSLPPTFGGGTKLEIKR
notes: Mouse monoclonal antibody purified from hybridoma supernatant, isotype IgG1; also called A201 antibody
For the molecule B1, the binding result in test [1] is reported as “binds”; in test [2], “binds”; in test [3], “no binding”; in test [4], “no binding”; in test [5], “no binding”.

B2: mouse anti-human EPHA2 antibody A205 (antibody, V domains shown)
VH: QIQLVQSGPELKKPGETVKISCKASGYTFTDYSMNWVKQAPGKGLKWMGWINTYTGEPTYADDFKGRFAFSLETSASTAYLQINNLKNEDTATYFCASPISLLRLLDYWGQGTTLTVSS
VL: DVVMTQTPLSLPVSLGDQASIPCRSSQSLVHSNGNTYLHWYLQKPGQSPKLLIYKVSNRFSGVPDRFSGSGSGTDFTLKISRVEAEDLGVYFCSQSTHVPWTFGGGTKLEIKR
notes: Mouse monoclonal antibody purified from hybridoma supernatant, isotype IgG2b; also called A205 antibody
B2: the binding result in test [1] is “binds”; in test [2], “binds”; in test [3], “no binding”; in test [4] it was “no binding”; in test [5] it was “no binding”.
